The experiment has as its target GST RBX1–CUL1–NEDD8 (human, UniProt Q13616 1-776; P62877 5-108; Q15843 1-76, NEDD8 linked to a specific site in the WHB subdomain | C-terminus linked to the cullin (isopeptide)). The experiment is described as follows: BLI.

GST RBX1–CUL1–NEDD8, sequence (Q13616 whole entry, chain 1 of 3): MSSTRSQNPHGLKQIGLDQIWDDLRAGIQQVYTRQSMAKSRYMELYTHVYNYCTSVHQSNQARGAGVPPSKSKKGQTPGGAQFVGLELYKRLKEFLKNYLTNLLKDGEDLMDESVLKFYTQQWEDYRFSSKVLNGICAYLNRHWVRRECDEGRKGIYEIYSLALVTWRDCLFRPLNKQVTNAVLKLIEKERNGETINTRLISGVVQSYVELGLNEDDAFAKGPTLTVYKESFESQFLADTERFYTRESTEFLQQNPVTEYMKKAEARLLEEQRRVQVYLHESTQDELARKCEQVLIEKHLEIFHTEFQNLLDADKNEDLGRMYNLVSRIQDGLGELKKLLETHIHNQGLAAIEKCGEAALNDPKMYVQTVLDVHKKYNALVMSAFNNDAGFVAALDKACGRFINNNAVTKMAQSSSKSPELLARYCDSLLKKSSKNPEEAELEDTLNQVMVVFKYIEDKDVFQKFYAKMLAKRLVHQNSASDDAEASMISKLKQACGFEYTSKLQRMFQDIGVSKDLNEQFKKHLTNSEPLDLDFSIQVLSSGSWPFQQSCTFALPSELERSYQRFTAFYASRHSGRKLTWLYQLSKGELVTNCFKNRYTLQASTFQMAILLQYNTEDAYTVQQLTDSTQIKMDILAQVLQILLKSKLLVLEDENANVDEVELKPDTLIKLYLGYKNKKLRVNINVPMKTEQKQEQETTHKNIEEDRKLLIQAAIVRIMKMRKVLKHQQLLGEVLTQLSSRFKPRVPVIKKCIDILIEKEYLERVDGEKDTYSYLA
GST RBX1–CUL1–NEDD8, sequence (P62877 5-108, chain 2 of 3): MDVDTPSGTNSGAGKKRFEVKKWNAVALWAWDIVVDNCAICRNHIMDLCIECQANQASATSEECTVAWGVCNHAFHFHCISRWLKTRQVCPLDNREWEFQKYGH
GST RBX1–CUL1–NEDD8, sequence (Q15843 1-76, chain 3 of 3): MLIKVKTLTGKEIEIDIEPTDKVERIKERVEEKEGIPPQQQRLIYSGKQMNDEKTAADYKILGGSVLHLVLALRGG

B1: N8C_Fab3b (Fab, V domains shown)
VH: EVQLVESGGGLVQPGGSLRLSCAASGFNFSSSSIHWVRQAPGKGLEWVASISSSYGYTYYADSVKGRFTISADTSKNTAYLQMNSLRAEDTAVYYCARDPFGWAAHGVGLDYWGQGTLVTVSS
VL: DIQMTQSPSSLSASVGDRVTITCRASQSVSSAVAWYQQKPGKAPKLLIYSASSLYSGVPSRFSGSRSGTDFTLTISSLQPEDFATYYCQQSSYSLITFGQGTKVEIK
B1 yielded a Kd of 1.27 nM.

For orientation: Kd means the free concentration of one partner at which half of the binding sites on the other are occupied at equilibrium, for simple one-to-one binding. A high value points to weaker binding.

Values taken from PMC10667097 (2023).
